Data as given in the supplement of paper PMC11780869.

System: Bacillus subtilis
Experiment: cleaved RNA product abundance (RNA/gDNA barcode ratio) relative to median wild-type variant (ratio to wild type); higher = more accumulation of the downstream cleavage product
Procedure, shortened: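 Cleaved product abundance is expressed as the RNA:gDNA barcode ratio per construct, scaled to the median construct carrying the unmutated site. The constructs were barcoded, mutagenized RNase Y cleavage-site windows in truncated aprE or tetM reporter mRNAs integrated into the B. subtilis chromosome. Cultures grew in LB at 37°C from OD600 0.0003 to 0.3 before cleaved RNA was gel-selected and barcode-sequenced.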

[1] = experiment (reporter, strain, medium): exp 4a: truncated aprE reporter, strain BJT201 with 2% xylose (RNase J1 expressed), cleavage site: cggR-gapA (positions -7 to +36 mutated)
[2] = experiment (reporter, strain, medium): exp 8a: truncated aprE reporter, strain BJT201 with 2% xylose (RNase J1 expressed), cleavage site: glnRA (positions -5 to +31 mutated)
[3] = experiment (reporter, strain, medium): exp 2b: truncated aprE reporter, strain BJT200, cleavage site: cggR-gapA (positions -7 to +36 mutated)
[4] = experiment (reporter, strain, medium): exp 6: tetM reporter, strain 168, cleavage site: cggR-gapA (positions -7 to +36 mutated)

Sequence	cleaved RNA product abundance [1]	cleaved RNA product abundance [2]	also measured
ACAGACGAAGGAGCCGCAAAGAAGTTATTAAGGTATGAATAATCCCTCAATATAAATGTCTCTCACTTATTTAAA	0.107		
CGACATGTCCCGCTTCTTTCATTAATACGTTAGCAACTGTTATGCTATATACATTTACCTTTTAAGAGGAGGAAT		0.886	
ACAGACGAAGGAGCCGCAAAGAAGTTATTAAGGAATGAATAATCCCTCAGTATAAATATCTCTCACTTATTTAAA	0.15		
CGACATGTCCCGCTTCTTTCATTAATCCGTTAGCAACTGTTTTGTTATATACATATACCTTTTAAGAGGAGGAAT		0.573	
ACAGACGAAGGAGCCGCAAATAAGTTATTAAAGGATGAATAATCCCTCAATATAGATATCTCTCACTTATTTAAA	0.188		
ACAGACGAAGGAGCCGCATAGAAGTTATTAAGGGATGAATAATCCCTCAACATAAATATCTCTCACTTATTTAAA	0.317		
CGACATGTCCCGCTTCTTTCATTACTCCGTTAGCAACAGTTATGCTATATACATTTACCTTTTAAGAGGAGGAAT		0.735	
ACAGACGAAGGAGCCGCAAAGAAGTAATTAAGGGATGAATAACCCCTCAATATAAATATCTCTCACTTATTTAAA	0.158		
CGACATGTCCCGCTTCTTTCATTATTCCGTTAGCAACTGTTTTGCTATATACATTTGCCTTTTAAGAGGAGGAAT		0.599	
ACAGACGAAGGAGCCGCAAATAAGTTATTAAGGGATGAATAATGCCTCAATATAAATATCTCTCACTTATTTAAA	0.145		
ACAGACGAAGGAGCCGCAAAGAAGTTATTAAGCGATGAATAATCCCTCAATATAAACATCTCTCACTTATTTAAA	0.0627		cleaved RNA product abundance [3]: 0.0873
ACAGACGAAGGAGCCGCAAAGAAGTTATTAAGGGAAGAATAATCCCTCATTATAAATATCTCTCACTTATTTAAA	0.216		cleaved RNA product abundance [3]: 0.208
ACAGACGAAGGAGCCGCTAAGAAGTTATTAAGGGAAGAATAATCCCTCAATATAAATATCTCTCACTTATTTAAA	0.638		
ACAGACGAAGGAGCCGCAAAGAAGTGATTAAGGGATGAATAATCCCTCAACATAAATATCTCTCACTTATTTAAA			cleaved RNA product abundance [3]: 0.293
ACAGACGAAGGAGCCGCAAAGATGTTATTAAGGCATGAATAATCCCTCAATATAAATATCTCTCACTTATTTAAA	0.104		cleaved RNA product abundance [3]: 0.108
CGACATGTCCCGCTTCTTTCATTAATCCGTTACCAACTGTTTTGCTATATACATTTATCTTTTAAGAGGAGGAAT		0.306	
ACAGACGAAGGAGCCGCAAAGAAGTTATTAAGGAATGAATAAACCCTCAATATAAATATCTCTCACTTATTTAAA	0.11		cleaved RNA product abundance [3]: 0.0981
ACAGACGAAGGAGCCGCAAAGAAGTTATTAATGGATGAATAATCCCTCAATATAAAAATCTCTCACTTATTTAAA	0.156		cleaved RNA product abundance [3]: 0.133
CGACATGTCCCGCTTCTTTCATTAATACGTTAGCAACTGTTTAGCTATATACATTTACCTTTTAAGAGGAGGAAT		0.376	
ACAGACGAAGGAGCCGCAAAGAAGTTATTAATGGATGAATAATCCCTCCATATAAATATCTCTCACTTATTTAAA	0.12		
CGACATGTCCCGCTTCTTTCATTAATCCGTTAGGAACAGTTTTGCTATATACATTTACCTTTTAAGAGGAGGAAT		0.434	

Sequence	cleaved RNA product abundance [1]	cleaved RNA product abundance [2]	also measured
ACAGACGAAGGAGCCGCTAAGAAGTAATTAAGGGATGAATAATCCCTCAATATAAATATCTCTCACTTATTTAAA	0.309		
CGACATGTCCCGCTTCTTTCATTATTCCGTTAGCAACTGTTTTGCTATATACATTTACCGTTTAAGAGGAGGAAT		1.18	
CGACATGTCCCGCTTCTTTCATTAACCCGTAAGCAACTGTTTTGCTATATACATTTACCTTTTAAGAGGAGGAAT		0.312	
ACAGACGAAGGAGCCGCAAAGAAGTTATTAAGGGATGAATTATCCCTCAATATACATATCTCTCACTTATTTAAA	0.442		
ACAGACGAAGGAGCCGCAAAGAACTTATTAAGGGATGAATAACCCCTCAATATAAATATCTCTCACTTATTTAAA			cleaved RNA product abundance [3]: 0.235
CGACATGTCCCGCTTCTTTCATTAATCCGATAGCAACTGTTTTACTATATACATTTACCTTTTAAGAGGAGGAAT		0.459	
CGACATGTCCCGCTTCTTTCATTAATCCGTAAGCAACTGTTTTGCCATATACATTTACCTTTTAAGAGGAGGAAT		0.295	
ACAGACGAAGGAGCCGCAAAGAAGTTAATAAGGGATGAATAATCCCTCAAAATAAATATCTCTCACTTATTTAAA	0.25		
ACAGACGAAGGAGCCGCAAAGAAGTTATTAAGGGATGAATAATCCCTTAATATAAATATCTCTCACTTATTTAAA	0.595		cleaved RNA product abundance [3]: 0.782; cleaved RNA product abundance [4]: 0.623
ACAGACGAAGGAGCCGCAAAGAAGTTATTAAGTGATGATTAATCCCTCAATATAAATATCTCTCACTTATTTAAA			cleaved RNA product abundance [3]: 0.112
ACAGACGAAGGAGCCGCAAAGAAGTTATTAAGAGAGGAATAATCCCTCAATATAAATATCTCTCACTTATTTAAA	0.199		
ACAGACGAAGGAGCCGCAAAGAAGATATTAAGTGATGAATAATCCCTCAATATAAATATCTCTCACTTATTTAAA	0.137		cleaved RNA product abundance [3]: 0.103
ACAGACGAAGGAGCCGCAAAGAAGTTATGAAGGGATGAATTATCCCTCAATATAAATATCTCTCACTTATTTAAA	0.343		cleaved RNA product abundance [3]: 0.232
ACAGACGAAGGAGCCGCAAAGAAGTTAATAAGGGATGAATAATCCCTCAATACAAATATCTCTCACTTATTTAAA			cleaved RNA product abundance [3]: 0.0847
CGACATGTCCCGCTTCTTTCATTAATCAGTTAGCAACTGTTTTGCTATATAAATTTACCTTTTAAGAGGAGGAAT		0.682	
CGACATGTCCCGCTTCTTTCATTAATCAGTTAGTAACTGTTTTGCTATATACATTTACCTTTTAAGAGGAGGAAT		0.421	
ACAGACGAAGGAGCCGCAAAGAAGTTATTAAGGGATGAATAATCCCACAATATAAATAACTCTCACTTATTTAAA			cleaved RNA product abundance [3]: 0.231
ACAGACGAAGGAGCCGCAAAGAAGTTATTAACGGATGAATAATCCCCCAATATAAATATCTCTCACTTATTTAAA	0.173		
ACAGACGAAGGAGCCGCAAAGAAGTTATTAGAGGATGAATAATCCCTCAATATAAATATCTCTCACTTATTTAAA	0.301		
ACAGACGAAGGAGCCGCAAAGAAGTTATTAAGGGATGACTAATCCCACAATATAAATATCTCTCACTTATTTAAA	0.197		cleaved RNA product abundance [3]: 0.157
CGACATGTCCCGCTTCTTTCATTAATCCGTAAGCAACTGTTTTGCTATGTACATTTACCTTTTAAGAGGAGGAAT		0.0895	

Sequence	cleaved RNA product abundance [1]	cleaved RNA product abundance [2]	also measured
ACAGACGAAGGAGCCGCAAAGTAGTTATTAAGGGATGAATAATCCCTCAAAATAAATATCTCTCACTTATTTAAA	0.425		cleaved RNA product abundance [3]: 0.289; cleaved RNA product abundance [4]: 0.282
ACAGACGAAGGAGCCGCAAAGAATTTCTTAAGGGATGAATAATCCCTCAATATAAATATCTCTCACTTATTTAAA	0.217		
ACAGACGAAGGAGCCGCAAAGAAGTTATTAAGGGATTAATAATCCCTCGATATAAATATCTCTCACTTATTTAAA	0.594		
ACAGACGAAGGAGCCGCAAAGAAGTTATTAAGGGATGAATAATCCCTCAACATACATATCTCTCACTTATTTAAA	0.273		
CGACATGTCCCGCTTCTTTCATTAATACGTTAGCAACTTTTTTGCTATATACATTTACCTTTTAAGAGGAGGAAT		0.721	
ACAGACGAAGGAGCCGCAAAGTATTTATTAAGGGATGAATAATCCCTCAATATAAATATCTCTCACTTATTTAAA	0.594		cleaved RNA product abundance [3]: 0.85
ACAGACGAAGGAGCCGCAAAGAAATTATTAAGCGATTAATAATCCCTCAATATAAATATCTCTCACTTATTTAAA	0.0984		
CGACATGTCCCGCTTCTTTCATTAATCCGTTACCAACTATTTTGCTATATACATTTACCTTTTAAGAGGAGGAAT		0.178	
CGACATGTCCCGCTTCTTTCATTAATCCGTTAGCAACTTTTTTGCTATATACATTTACTTTTTAAGAGGAGGAAT		1.37	
CGACATGTCCCGCTTCTTTCATTAATCCGTTATCAACTGTTTTGCCATATACATTTACCTTTTAAGAGGAGGAAT		0.145	
ACAGACGAAGGAGCCGCAAAGAAGTTATTAAAGCATTAATAATCCCTCAATATAAATATCTCTCACTTATTTAAA	0.134		
ACAGACGAAGGAGCCGCAAAGAAGTTATTAAGGATGAATAATCCCTCAATATAAATATCTCTCACTTATTTAAAG	0.294		
ACAGACGAAGGAGCCGCACAGAAGTTATTAAGTGATGAATAATCCCTCAATATAAATATCTCTCACTTATTTAAA	0.126		cleaved RNA product abundance [3]: 0.106
ACAGACGAAGGAGCCGCAAAGAAGTTATTTATGGATGAATAATCACTCAATATAAATATCTCTCACTTATTTAAA	0.124		
CGACATGTCCCGCTTCTTTCATTAATCCGTTAGCAACTGTTTAGCTATATACATTTACATTTTAAGAGGAGGAAT		0.588	
ACAGACGAAGGAGCCGCAAAGAAGTTACTAAGGAATGAATAATCCCTCAATATAAATATCTCTCACTTATTTAAA	0.143		cleaved RNA product abundance [3]: 0.0952
CGACATGTCCCGCTTCTTTCATTAATTCGTTGGCAACTGTTTTGCTATATACATTTACCTTTTAAGAGGAGGAAT		0.687	
ACAGACGAAGGAGCCGCAAAGAAGTTATTAAGCGATGAATAATCCCTCAATATAAATACCTCTCACTTATTTAAA	0.118		
ACAGACGAAGGAGCCGCAAAGAAGTTATTAAGGGATGAGTAATCCCTCCATATAAATATCTCTCACTTATTTAAA	0.164		
